Literature values as cited in PMC6018615.

Biological target: TNPO1 (Homo sapiens) (UniProt Q92973)
Sequence of UniProt Q92973 (Q92973 whole entry): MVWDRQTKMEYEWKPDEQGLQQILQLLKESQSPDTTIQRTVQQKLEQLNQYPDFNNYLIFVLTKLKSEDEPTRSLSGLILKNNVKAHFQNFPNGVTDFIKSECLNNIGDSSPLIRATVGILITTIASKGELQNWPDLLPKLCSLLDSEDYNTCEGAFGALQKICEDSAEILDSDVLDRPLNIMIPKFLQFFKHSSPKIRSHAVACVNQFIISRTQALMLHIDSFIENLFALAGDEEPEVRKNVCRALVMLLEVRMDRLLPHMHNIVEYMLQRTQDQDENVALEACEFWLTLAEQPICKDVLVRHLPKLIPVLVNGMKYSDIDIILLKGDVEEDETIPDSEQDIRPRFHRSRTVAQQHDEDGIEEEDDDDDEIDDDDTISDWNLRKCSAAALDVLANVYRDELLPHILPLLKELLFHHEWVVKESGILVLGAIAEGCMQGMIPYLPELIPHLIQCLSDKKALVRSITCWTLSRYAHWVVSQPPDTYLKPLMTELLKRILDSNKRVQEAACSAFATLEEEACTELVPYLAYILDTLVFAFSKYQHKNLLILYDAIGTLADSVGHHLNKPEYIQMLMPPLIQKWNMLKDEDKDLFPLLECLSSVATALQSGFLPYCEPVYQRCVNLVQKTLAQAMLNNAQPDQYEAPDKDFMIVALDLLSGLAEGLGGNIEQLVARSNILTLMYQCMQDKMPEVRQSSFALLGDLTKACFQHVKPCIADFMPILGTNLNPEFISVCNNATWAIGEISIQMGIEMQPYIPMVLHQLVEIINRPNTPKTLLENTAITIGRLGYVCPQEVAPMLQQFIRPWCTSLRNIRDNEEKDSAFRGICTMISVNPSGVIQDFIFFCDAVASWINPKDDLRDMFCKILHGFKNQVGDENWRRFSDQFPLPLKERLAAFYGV

Kd: 9.5 nM
Substance: FUS (from UniProt P35637)
